Results as given in patent US20210369812A1, “OSTEOINDUCTIVE PEPTIDES, COMPOSITIONS, IMPLANTS, AND METHODS OF USE” (The Board of Regents of the University of Oklahoma, priority 2018, published 2021).
Entries after “also recorded” stand apart in the source; their conditions may differ.

Assays:
BMPR1A = molecular target: T1, BMPR1A (Homo sapiens, UniProt P36894); assay: Biopanning of Ph.D.-12 phage library on immobilized BMPR1A-Fc; format: binding; conditions: peptide displayed on p3 of M13 phage; 3 rounds of panning
T1 construct: purchased G&P Biosciences
Method: (§1) The Ph.D.™-12 phage library was diluted in tris-buffered saline mixed with Tween-20 (TBS+0.1% v/v Tween-20 and abbreviated TBST) for a final concentration of 2×10^11 phage in 1 mL of TBST. The diluted library was then pipetted onto one of the wells of a 12-well poly-L-lysine plate followed by rocking the plate gently for 60 minutes at room temperature. […] This supernatant served as the starting phage library for subsequent binding selections. The phages which stuck to the plate were discarded.
(§2) This procedure is only applicable if the charge of the desired protein to be immobilized is negative, determined by checking the pI value of the protein. […]. This procedure was written for 12-well plates coated in poly-L-lysine (positively charged). Separate solutions of BMPR1A-Fc and BMPR2-Fc were prepared at 80 μg/ml in Tris-buffered saline (pH 7.5). In separate wells and on separate poly-L-lysine coated 12-well plates, 0.3 ml of each solution of receptor was added. The solutions of BMPR1A-Fc and BMPR2-Fc were swirled around the plate surface until the entire surface was wet. The plates were then incubated overnight at 4° C. with gentle agitation in a humidified container (a sealed plastic box with damp paper towels). Each individual receptor was now immobilized.
(§3) The following selection procedure is based off of the direct coating procedure outlined in the Ph.D.™-12 Phage Display Libraries instructional manual (New England Biolabs) with some alterations. This procedure was carried out after immobilizing the targets BMPR1A-Fc and BMPR2-Fc in a 12-well poly-L-lysine coated plate. A stock solution of tetracycline was prepared (20 mg/ml in 1:1 ethanol:water). The coating solution containing the target receptors was poured off followed by firmly slapping the plates face down on a clean paper towel. Each well was then filled with blocking buffer (0.1 M NaHCO3 (pH 8.6), 5 mg/mL BSA, 0.02% NaN3. Filter sterilize, store at 4° C.) and incubated for 1 hour at 4° C. The blocking solution was then poured off followed by firmly slapping the plates down against a clean paper towel. Each plate was washed rapidly 6 times with Tris-buffered saline mixed with Tween-20 (TBS+0.1% v/v Tween-20). The plate was slapped against a clean paper towel each time. 1 ml of the phage library created from the negative selection process was then pipetted onto each of the target coated wells. The plates were then rocked gently at room temperature for 60 min. The non-binding phages were then discarded by pouring off the supernatant and slapping the plate face-down on a clean paper towel. The plate was then washed 10 times with TBST followed by slapping the plate face-down on a clean paper towel each time (a clean section of paper towel was used each time to prevent cross-contamination). The bound phages were then eluted by incubating with a nonspecific disruption buffer (0.2 M Glycine-HCl (pH 2.2), 1 mg/ml bovine serum albumin (BSA) for 15 minutes. The eluate (immersed in the disruption buffer) was then pipetted into a microcentrifuge tube followed by neutralization with 150 μl of 1 M Tris-HCl (pH 9.1). A small portion (˜1 μl) of this eluate could be titered and sequenced if desired. The rest of the eluate was amplified (see amplification of phage library section). Once amplified, the eluate was also titered. Determine the concentration of amplified phages by counting the blue plaques in titering as described. Dilute the amplified library to contain 2×10^11 phages in 1 mL of TBS (as little as 10^9 plaque forming units per ml can be used if there is not enough). A second poly-L-lysine 12-well plate was then coated with the target receptors to allow for a second round of biopanning carried out using the same steps except that the Tween-20 concentration in the wash steps was raised to 0.5% (v/v). The eluate from the second round was then amplified, titered and used in an additional 3rd round of panning on newly receptor coated plates. […]

BMPR2 = molecular target: T2, BMPR2 (Homo sapiens, UniProt Q13873); assay: Biopanning of Ph.D.-12 phage library on immobilized BMPR2-Fc; format: binding; conditions: peptide displayed on p3 of M13 phage; 3 rounds of panning
T2 construct: purchased G&P Biosciences
T2 sequence (Q13873 27-150 limits assumed): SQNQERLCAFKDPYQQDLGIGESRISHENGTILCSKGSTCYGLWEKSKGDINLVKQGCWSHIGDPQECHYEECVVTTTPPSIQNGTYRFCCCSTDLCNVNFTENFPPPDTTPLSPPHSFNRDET
Method: as §1, §2, §3

[1] = system: rat radial bone defect model; assay: Rat radial bone defect model, Micro-CT; format: in vivo; conditions: phage-coated titanium scaffold seeded with hMSCs; 4 weeks
Method: The titanium alloy scaffolds were rinsed 3 times in distilled water followed by autoclaving. The scaffolds were then coated in poly-L-lysine by soaking in 2.5 ml of poly-L-lysine per 5 scaffolds in a 24-well cell culture plate for 30 minutes. The poly-L-lysine was then discarded, and the scaffolds were allowed to dry in a sterile hood overnight. In a sterile cell culture hood, 2 scaffolds were loaded into the sterile freeze casting holder (sterilized by autoclaving). 2 ml of sterile, filtered phage solution (3×10^13 phages/ml) was pipetted into the casting holder and directly into the pores of the titanium scaffolds. The solution was allowed to incubate at room temperature for 30 minutes so that phages could stick better to the scaffold. The scaffolds and phage solution were then freeze casted in the double-sided freeze casting machine with a temperature drop of 3° C./min on the lower contact point and a constant 0° C. on the upper contact point. The final temperature for the lower contact point was −135° C. The frozen scaffold and solution were then freeze dried overnight. For cell seeding, the scaffold was then soaked overnight in cell medium followed by seeding 3.6×10^4 hMSCs onto the scaffold the next day in new medium. After 1 day of culturing, the scaffolds were implanted into the rat radial bone defect model. […]

T1 sequence (P36894 24-152 limits assumed): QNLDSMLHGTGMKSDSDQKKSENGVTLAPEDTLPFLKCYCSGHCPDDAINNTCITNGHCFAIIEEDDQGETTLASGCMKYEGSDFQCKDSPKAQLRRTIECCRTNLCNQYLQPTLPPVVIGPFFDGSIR

Row | Sequence | Binding to BMPR1A found by biopanning (frequency among sequenced plaques) (BMPR1A) | Binding to BMPR2 found by biopanning (frequency among sequenced plaques) (BMPR2) | Healing of bone defect (Micro-CT) [1]
1 | SGTQDSMVGWNK (Completely synthesized in the lab - Ph.D.-12 Phage Display Peptide Library Kit (New England Biolabs)) | showed up as a result of biopanning on both BMPR1A alone and BMPR2 alone; also recorded: discovered to bind | showed up as a result of biopanning on both BMPR1A alone and BMPR2 alone; also recorded: discovered to bind | 
2 | VHVPLHRGAVSA (Completely synthesized in the lab - Ph.D.-12 Phage Display Peptide Library Kit (New England Biolabs)) | discovered to bind | discovered to bind | Increased healing was best observed
